Measurements published in PMC4667630, “Localized reconstruction of subunits from electron cryomicroscopy images of macromolecular complexes” (Nature Communications, 2015).

B2: bacteriophage φ6 protein P1 (natural protein, UniProt P11126 1-769, looked up)
chain: MFNLKVKDLNGSARGLTQAFAIGELKNQLSVGALQLPLQFTRTFSASMTSELLWEVGKGNIDPVMYARLFFQYAQAGGALSVDELVNQFTEYHQSTACNPEIWRKLTAYITGSSNRAIKADAVGKVPPTAILEQLRTLAPSEHELFHHITTDFVCHVLSPLGFILPDAAYVYRVGRTATYPNFYALVDCVRASDLRRMLTALSSVDSKMLQATFKAKGALAPALISQHLANAATTAFERSRGNFDANAVVSSVLTILGRLWSPSTPKELDPSARLRNTNGIDQLRSNLALFIAYQDMVKQRGRAEVIFSDEELSSTIIPWFIEAMSEVSPFKLRPINETTSYIGQTSAIDHMGQPSHVVVYEDWQFAKEITAFTPVKLANNSNQRFLDVEPGISDRMSATLAPIGNTFAVSAFVKNRTAVYEAVSQRGTVNSNGAEMTLGFPSVVERDYALDRDPMVAIAALRTGIVDESLEARASNDLKRSMFNYYAAVMHYAVAHNPEVVVSEHQGVAAEQGSLYLVWNVRTELRIPVGYNAIEGGSIRTPEPLEAIAYNKPIQPSEVLQAKVLDLANHTTSIHIWPWHEASTEFAYEDAYSVTIRNKRYTAEVKEFELLGLGQRRERVRILKPTVAHAIIQMWYSWFVEDDRTLAAARRTSRDDAEKLAIDGRRMQNAVTLLRKIEMIGTTGIGASAVHLAQSRIVDQMAGRGLIDDSSDLHVGINRHRIRIWAGLAVLQMMGLLSRSEAEALTKVLGDSNALGMVVATTDIDPSL
notes: P1, major shell protein of the bacteriophage φ6 polymerase complex; atomic structure PDB 4K7H was fitted into the capsid map; also called P1 shell; source: self-assembled in vitro into P124 particles; copies: 120

Legend:
[1] = biological target: rotavirus triple-layered particle, non-VP4 protein components (rotavirus (strain not stated)) (UniProt P12476); assay: cryo-EM structure; rotavirus triple-layered particles, previously published data set (ref. 15); icosahedral reconstruction, subtraction of non-VP4 components, localized reconstruction and 3D classification of VP4 sub-particles
[2] = biological target: B2; assay: cryo-EM structure; φ6 P124 particles self-assembled in vitro from purified P1, P2 and P4 (molar ratio 120:120:72, 6% PEG 4000, room temperature, 90 min), separated by rate-zonal sucrose gradient centrifugation, 20 mM Tris pH 8.0; icosahedral reconstruction and localized reconstruction with 3D classification of sub-particles at the threefold axes; details: both partners purified
[3] = biological target: the molecule itself; assay: as above

Chain of rotavirus triple-layered particle, non-VP4 protein components (rotavirus (strain not stated)) (P12476 whole entry, looked up): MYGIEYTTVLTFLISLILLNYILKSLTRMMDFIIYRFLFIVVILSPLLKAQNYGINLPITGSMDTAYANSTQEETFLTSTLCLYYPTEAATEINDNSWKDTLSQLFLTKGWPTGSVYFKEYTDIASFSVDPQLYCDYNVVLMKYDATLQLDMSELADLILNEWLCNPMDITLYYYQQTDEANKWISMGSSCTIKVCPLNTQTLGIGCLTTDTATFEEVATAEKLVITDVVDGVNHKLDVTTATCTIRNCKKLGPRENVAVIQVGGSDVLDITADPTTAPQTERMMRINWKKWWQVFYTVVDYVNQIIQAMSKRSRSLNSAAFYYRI

For “rotavirus viral protein VP4 (from UniProt P12473 1-776) (natural protein)”, the occupancy of VP4 [1] was 60 to 70%.

B1: bacteriophage φ6 P2 RNA-dependent RNA polymerase (enzyme)
chain: PRRAPAFPLSDIKAQMLFANNIKAQQASKRSFKEGAIETYEGLLSVDPRFLSFKNELSRYLTDHFPANVDEYGRVYGNGVRTNFFGMRHMNGFPMIPATWPLASNLKKRADADLADGPVSERDNLLFRAAVRLMFSDLEPVPLKIRKGSSTCIPYFSNDMGTKIEIAERALEKAEEAGNLMLQGKFDDAYQLHQMGGAYYVVYRAQSTDAITLDPKTGKFVSKDRMVADFEYAVTGGEQGSLFAASKDASRLKEQYGIDVPDGFFCERRRTAMGGPFALNAPIMAVAQPVRNKIYSKYAYTFHHTTRLNKEEKVKEWSLCVATDVSDHDTFWPGWLRDLICDELLNMGYAPWWVKLFETSLKLPVYVGAPAPEQGHTLLGDPSNPDLEVGLSSGQGATDLMGTLLMSITYLVMQLDHTAPHLNSRIKDMPSACRFLDSYWQGHEEIRQISKSDDAILGWTKGRALVGGHRLFEMLKEGKVNPSPYMKISYEHGGAFLGDILLYDSRREPGSAIFVGNINSMLNNQFSPEYGVQSGVRDRSKRKRPFPGLAWASMKDTYGACPIYSDVLEAIERCWWNAFGESYRAYREDMLKRDTLELSRYVASMARQAGLAELTPIDLEVLADPNKLQYKWTEADVSANIHEVLMHGVSVEKTERFLRSVMPR
notes: P2, RNA-dependent RNA polymerase of bacteriophage φ6, 75 kDa, monomeric; X-ray structure PDB 1HHS was fitted into the density; also called P2 polymerase; source: self-assembled in vitro into P124 particles
For B1, the “stoichiometry N” value [2] was ~12 copies of P2 per particle.

B2: binds [3].
